Target: Recombinant human IL-21R, extracellular domain fused to 8x Histidine tag (generated in house) (human, UniProt Q9HBE5 20-232)
Assay: SPR, 37 C
Procedure: Protein was not captured on flow cell 1 to serve as a reference surface. A serial dilution was generated for human IL-21R, in HBS-P+ buffer supplemented with 1 g/L BSA, starting at nominal concentrations between 20-5 µM, followed by six to seven 5-fold serial dilutions, and flowed over the surface-captured fusion protein for 2 minutes at 30 µL/min. Buffer was also flowed over the surface to serve as a blank subtraction. Dissociation was monitored for 5-10 minutes, and the anti-hIgG-Fc surface was regenerated with three 30 to 60-seconds injections of 75 mM phosphoric acid before recapturing fusion protein in each subsequent binding cycle. Binding data were double-referenced and analyzed by Biacore® Evaluation Software version 3.2 using steady-state affinity for very weak interactions, or when possible, a 1:1 Langmuir with mass transport model to determine kinetic rate constants (k_a, k_d) and K_D.

Sequence of Recombinant human IL-21R, extracellular domain fused to 8x Histidine tag (generated in house) (Q9HBE5 other isoform, or with tags, fused parts or gaps limits assumed): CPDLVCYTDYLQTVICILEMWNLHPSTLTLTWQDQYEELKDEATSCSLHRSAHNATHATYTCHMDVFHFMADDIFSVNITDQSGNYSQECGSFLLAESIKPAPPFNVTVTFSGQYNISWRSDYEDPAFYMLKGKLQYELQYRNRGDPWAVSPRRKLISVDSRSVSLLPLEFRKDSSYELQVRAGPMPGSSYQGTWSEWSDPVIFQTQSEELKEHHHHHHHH

B1: xhCD8.1-hIL21 v2.7 (other)
VH: QVQLVQSGAEVKKPGSSVKVSCKASGGTFSSYAISWVRQAPGQGLEWMGGIIPGYATANYAQKFQGRVTITADESTSTAYMELSSLRSEDTAVYYCARDAAGIRLFADWGQGTLVTVSS
VL: DIQMTQSPSSLSASVGDRVTITCRASQSIYGALNWYQQKPGKAPKLLIYGASNLQSGVPSRFSGSGSGTDFTLTISSLQPEDFATYYCQSTYTAPWTFGGGTKVEIK
chain: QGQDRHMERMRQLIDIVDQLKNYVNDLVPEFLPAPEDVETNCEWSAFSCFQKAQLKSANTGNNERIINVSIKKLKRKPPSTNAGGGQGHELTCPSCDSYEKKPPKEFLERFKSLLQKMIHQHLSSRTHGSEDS
notes: Human IgG1/kappa, knob-into-hole, L234A/L235A/G237A
With B1 the Kd was 156 nM.

B2: xhCD8.1-hIL21 v2.9 (other)
VH: QVQLVQSGAEVKKPGSSVKVSCKASGGTFSSYAISWVRQAPGQGLEWMGGIIPGYATANYAQKFQGRVTITADESTSTAYMELSSLRSEDTAVYYCARDAAGIRLFADWGQGTLVTVSS
VL: DIQMTQSPSSLSASVGDRVTITCRASQSIYGALNWYQQKPGKAPKLLIYGASNLQSGVPSRFSGSGSGTDFTLTISSLQPEDFATYYCQSTYTAPWTFGGGTKVEIK
chain: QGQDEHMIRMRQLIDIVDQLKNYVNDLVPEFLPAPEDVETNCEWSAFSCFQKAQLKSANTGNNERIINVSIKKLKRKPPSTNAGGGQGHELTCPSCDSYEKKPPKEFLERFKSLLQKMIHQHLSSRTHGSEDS
notes: as for B1
With B2 the Kd was 420 nM.

B3: xhCD8.1-hIL21 v2.58 (other)
VH: QVQLVQSGAEVKKPGSSVKVSCKASGGTFSSYAISWVRQAPGQGLEWMGGIIPGYATANYAQKFQGRVTITADESTSTAYMELSSLRSEDTAVYYCARDAAGIRLFADWGQGTLVTVSS
VL: DIQMTQSPSSLSASVGDRVTITCRASQSIYGALNWYQQKPGKAPKLLIYGASNLQSGVPSRFSGSGSGTDFTLTISSLQPEDFATYYCQSTYTAPWTFGGGTKVEIK
chain: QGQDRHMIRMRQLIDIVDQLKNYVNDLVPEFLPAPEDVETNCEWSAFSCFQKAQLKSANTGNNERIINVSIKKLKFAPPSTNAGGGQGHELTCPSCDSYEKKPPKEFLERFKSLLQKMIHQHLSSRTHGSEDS
notes: as for B1
With B3 the Kd was 420 nM.

B4: xhCD8.1-hIL21 v2.42 (other)
VH: QVQLVQSGAEVKKPGSSVKVSCKASGGTFSSYAISWVRQAPGQGLEWMGGIIPGYATANYAQKFQGRVTITADESTSTAYMELSSLRSEDTAVYYCARDAAGIRLFADWGQGTLVTVSS
VL: DIQMTQSPSSLSASVGDRVTITCRASQSIYGALNWYQQKPGKAPKLLIYGASNLQSGVPSRFSGSGSGTDFTLTISSLQPEDFATYYCQSTYTAPWTFGGGTKVEIK
chain: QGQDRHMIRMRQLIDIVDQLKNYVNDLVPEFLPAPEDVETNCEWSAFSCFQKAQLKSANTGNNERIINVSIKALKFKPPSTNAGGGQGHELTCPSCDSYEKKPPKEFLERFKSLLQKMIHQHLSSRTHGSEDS
notes: as for B1
B4: no binding (tested: highest concentration tested).

B5: xhCD8.1-hIL21 v2.36 (other)
VH: QVQLVQSGAEVKKPGSSVKVSCKASGGTFSSYAISWVRQAPGQGLEWMGGIIPGYATANYAQKFQGRVTITADESTSTAYMELSSLRSEDTAVYYCARDAAGIRLFADWGQGTLVTVSS
VL: DIQMTQSPSSLSASVGDRVTITCRASQSIYGALNWYQQKPGKAPKLLIYGASNLQSGVPSRFSGSGSGTDFTLTISSLQPEDFATYYCQSTYTAPWTFGGGTKVEIK
chain: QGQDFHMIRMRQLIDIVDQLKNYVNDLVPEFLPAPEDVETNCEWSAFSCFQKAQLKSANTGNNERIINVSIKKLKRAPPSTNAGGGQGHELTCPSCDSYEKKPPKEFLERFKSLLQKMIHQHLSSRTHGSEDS
notes: as for B1
B5 was tested, and the Kd was 125 nM.

B6: xhCD8.1-hIL21 v2.45 (other)
VH: QVQLVQSGAEVKKPGSSVKVSCKASGGTFSSYAISWVRQAPGQGLEWMGGIIPGYATANYAQKFQGRVTITADESTSTAYMELSSLRSEDTAVYYCARDAAGIRLFADWGQGTLVTVSS
VL: DIQMTQSPSSLSASVGDRVTITCRASQSIYGALNWYQQKPGKAPKLLIYGASNLQSGVPSRFSGSGSGTDFTLTISSLQPEDFATYYCQSTYTAPWTFGGGTKVEIK
chain: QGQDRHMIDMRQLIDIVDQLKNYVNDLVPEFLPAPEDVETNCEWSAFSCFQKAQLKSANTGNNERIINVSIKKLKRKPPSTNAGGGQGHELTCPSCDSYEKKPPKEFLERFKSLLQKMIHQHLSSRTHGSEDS
notes: as for B1
B6: no binding (tested: highest concentration tested).

B7: xhCD8.1-hIL21 v2.38 (other)
VH: QVQLVQSGAEVKKPGSSVKVSCKASGGTFSSYAISWVRQAPGQGLEWMGGIIPGYATANYAQKFQGRVTITADESTSTAYMELSSLRSEDTAVYYCARDAAGIRLFADWGQGTLVTVSS
VL: DIQMTQSPSSLSASVGDRVTITCRASQSIYGALNWYQQKPGKAPKLLIYGASNLQSGVPSRFSGSGSGTDFTLTISSLQPEDFATYYCQSTYTAPWTFGGGTKVEIK
chain: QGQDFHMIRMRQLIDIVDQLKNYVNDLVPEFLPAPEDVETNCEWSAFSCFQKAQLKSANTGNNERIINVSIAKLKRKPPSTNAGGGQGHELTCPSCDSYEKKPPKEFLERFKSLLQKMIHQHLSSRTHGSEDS
notes: as for B1
B7 was tested, and the Kd was 66.9 nM.

B8: xhCD8.1-hIL21 v2.43 (other)
VH: QVQLVQSGAEVKKPGSSVKVSCKASGGTFSSYAISWVRQAPGQGLEWMGGIIPGYATANYAQKFQGRVTITADESTSTAYMELSSLRSEDTAVYYCARDAAGIRLFADWGQGTLVTVSS
VL: DIQMTQSPSSLSASVGDRVTITCRASQSIYGALNWYQQKPGKAPKLLIYGASNLQSGVPSRFSGSGSGTDFTLTISSLQPEDFATYYCQSTYTAPWTFGGGTKVEIK
chain: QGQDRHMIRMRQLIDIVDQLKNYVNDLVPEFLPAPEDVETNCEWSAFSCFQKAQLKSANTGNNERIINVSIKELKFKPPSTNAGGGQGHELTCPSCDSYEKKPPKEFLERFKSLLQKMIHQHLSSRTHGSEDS
notes: as for B1
B8: no binding (tested: highest concentration tested).

B9: xhCD8.1-hIL21 v2.32 (other)
VH: QVQLVQSGAEVKKPGSSVKVSCKASGGTFSSYAISWVRQAPGQGLEWMGGIIPGYATANYAQKFQGRVTITADESTSTAYMELSSLRSEDTAVYYCARDAAGIRLFADWGQGTLVTVSS
VL: DIQMTQSPSSLSASVGDRVTITCRASQSIYGALNWYQQKPGKAPKLLIYGASNLQSGVPSRFSGSGSGTDFTLTISSLQPEDFATYYCQSTYTAPWTFGGGTKVEIK
chain: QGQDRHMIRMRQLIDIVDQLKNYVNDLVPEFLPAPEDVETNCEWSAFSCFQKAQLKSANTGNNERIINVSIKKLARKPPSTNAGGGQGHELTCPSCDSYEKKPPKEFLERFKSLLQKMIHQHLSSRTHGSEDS
notes: as for B1
B9 showed a Kd of 0.236 nM.

B10: xhCD8.1-hIL21 v2.28 (other)
VH: QVQLVQSGAEVKKPGSSVKVSCKASGGTFSSYAISWVRQAPGQGLEWMGGIIPGYATANYAQKFQGRVTITADESTSTAYMELSSLRSEDTAVYYCARDAAGIRLFADWGQGTLVTVSS
VL: DIQMTQSPSSLSASVGDRVTITCRASQSIYGALNWYQQKPGKAPKLLIYGASNLQSGVPSRFSGSGSGTDFTLTISSLQPEDFATYYCQSTYTAPWTFGGGTKVEIK
chain: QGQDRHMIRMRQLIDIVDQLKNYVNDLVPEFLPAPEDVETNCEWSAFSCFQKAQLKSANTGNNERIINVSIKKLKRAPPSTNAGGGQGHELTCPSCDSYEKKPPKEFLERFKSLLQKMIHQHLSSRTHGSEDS
notes: as for B1
In the case of B10, the Kd is reported as 0.693 nM.

B11: xhCD8.1-hIL21 v2.46 (other)
VH: QVQLVQSGAEVKKPGSSVKVSCKASGGTFSSYAISWVRQAPGQGLEWMGGIIPGYATANYAQKFQGRVTITADESTSTAYMELSSLRSEDTAVYYCARDAAGIRLFADWGQGTLVTVSS
VL: DIQMTQSPSSLSASVGDRVTITCRASQSIYGALNWYQQKPGKAPKLLIYGASNLQSGVPSRFSGSGSGTDFTLTISSLQPEDFATYYCQSTYTAPWTFGGGTKVEIK
chain: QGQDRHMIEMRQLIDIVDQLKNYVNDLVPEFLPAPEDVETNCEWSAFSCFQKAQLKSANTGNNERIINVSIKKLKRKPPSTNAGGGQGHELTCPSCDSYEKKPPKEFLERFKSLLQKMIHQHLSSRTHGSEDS
notes: as for B1
B11: no binding (tested: highest concentration tested).

B12: xhCD8.1-hIL21 v2.40 (other)
VH: QVQLVQSGAEVKKPGSSVKVSCKASGGTFSSYAISWVRQAPGQGLEWMGGIIPGYATANYAQKFQGRVTITADESTSTAYMELSSLRSEDTAVYYCARDAAGIRLFADWGQGTLVTVSS
VL: DIQMTQSPSSLSASVGDRVTITCRASQSIYGALNWYQQKPGKAPKLLIYGASNLQSGVPSRFSGSGSGTDFTLTISSLQPEDFATYYCQSTYTAPWTFGGGTKVEIK
chain: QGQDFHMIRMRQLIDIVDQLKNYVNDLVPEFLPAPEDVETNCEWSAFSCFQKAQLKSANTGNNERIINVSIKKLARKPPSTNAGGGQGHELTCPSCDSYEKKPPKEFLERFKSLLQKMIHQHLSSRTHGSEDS
notes: as for B1
Work on B12 yielded a Kd of 54.7 nM.

B13: xhCD8.1-hIL21 v2.33 (other)
VH: QVQLVQSGAEVKKPGSSVKVSCKASGGTFSSYAISWVRQAPGQGLEWMGGIIPGYATANYAQKFQGRVTITADESTSTAYMELSSLRSEDTAVYYCARDAAGIRLFADWGQGTLVTVSS
VL: DIQMTQSPSSLSASVGDRVTITCRASQSIYGALNWYQQKPGKAPKLLIYGASNLQSGVPSRFSGSGSGTDFTLTISSLQPEDFATYYCQSTYTAPWTFGGGTKVEIK
chain: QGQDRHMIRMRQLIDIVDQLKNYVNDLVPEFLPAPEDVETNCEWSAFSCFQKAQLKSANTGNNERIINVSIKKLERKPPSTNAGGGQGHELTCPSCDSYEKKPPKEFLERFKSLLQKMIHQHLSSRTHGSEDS
notes: as for B1
B13 was tested, and the Kd was 1.3 nM.

B14: xhCD8.1-hIL21 v2.30 (other)
VH: QVQLVQSGAEVKKPGSSVKVSCKASGGTFSSYAISWVRQAPGQGLEWMGGIIPGYATANYAQKFQGRVTITADESTSTAYMELSSLRSEDTAVYYCARDAAGIRLFADWGQGTLVTVSS
VL: DIQMTQSPSSLSASVGDRVTITCRASQSIYGALNWYQQKPGKAPKLLIYGASNLQSGVPSRFSGSGSGTDFTLTISSLQPEDFATYYCQSTYTAPWTFGGGTKVEIK
chain: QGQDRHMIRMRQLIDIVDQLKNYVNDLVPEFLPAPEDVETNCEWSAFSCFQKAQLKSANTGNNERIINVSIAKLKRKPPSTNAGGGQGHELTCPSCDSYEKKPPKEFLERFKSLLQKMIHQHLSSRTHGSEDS
notes: as for B1
In the case of B14, the Kd is reported as 0.419 nM.

B15: xhCD8.1-hIL21 v2.20 (other)
VH: QVQLVQSGAEVKKPGSSVKVSCKASGGTFSSYAISWVRQAPGQGLEWMGGIIPGYATANYAQKFQGRVTITADESTSTAYMELSSLRSEDTAVYYCARDAAGIRLFADWGQGTLVTVSS
VL: DIQMTQSPSSLSASVGDRVTITCRASQSIYGALNWYQQKPGKAPKLLIYGASNLQSGVPSRFSGSGSGTDFTLTISSLQPEDFATYYCQSTYTAPWTFGGGTKVEIK
chain: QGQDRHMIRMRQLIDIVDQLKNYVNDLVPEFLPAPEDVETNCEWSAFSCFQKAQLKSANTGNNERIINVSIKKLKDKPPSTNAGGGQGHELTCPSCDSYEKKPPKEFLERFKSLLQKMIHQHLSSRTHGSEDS
notes: as for B1
B15: no binding (tested: highest concentration tested).

B16: xhCD8.1-hIL21 v2.39 (other)
VH: QVQLVQSGAEVKKPGSSVKVSCKASGGTFSSYAISWVRQAPGQGLEWMGGIIPGYATANYAQKFQGRVTITADESTSTAYMELSSLRSEDTAVYYCARDAAGIRLFADWGQGTLVTVSS
VL: DIQMTQSPSSLSASVGDRVTITCRASQSIYGALNWYQQKPGKAPKLLIYGASNLQSGVPSRFSGSGSGTDFTLTISSLQPEDFATYYCQSTYTAPWTFGGGTKVEIK
chain: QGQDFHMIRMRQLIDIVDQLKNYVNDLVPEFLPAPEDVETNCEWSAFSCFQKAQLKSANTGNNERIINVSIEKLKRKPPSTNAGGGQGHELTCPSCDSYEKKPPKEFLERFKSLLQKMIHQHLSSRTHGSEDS
notes: as for B1
B16 gave a Kd of 614 nM.

B17: xhCD8.1-hIL21 v2.29 (other)
VH: QVQLVQSGAEVKKPGSSVKVSCKASGGTFSSYAISWVRQAPGQGLEWMGGIIPGYATANYAQKFQGRVTITADESTSTAYMELSSLRSEDTAVYYCARDAAGIRLFADWGQGTLVTVSS
VL: DIQMTQSPSSLSASVGDRVTITCRASQSIYGALNWYQQKPGKAPKLLIYGASNLQSGVPSRFSGSGSGTDFTLTISSLQPEDFATYYCQSTYTAPWTFGGGTKVEIK
chain: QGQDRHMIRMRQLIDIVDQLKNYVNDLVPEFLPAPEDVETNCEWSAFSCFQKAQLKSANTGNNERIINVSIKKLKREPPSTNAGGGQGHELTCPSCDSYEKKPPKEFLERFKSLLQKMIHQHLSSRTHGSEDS
notes: as for B1
Work on B17 yielded a Kd of 2.8 nM.

B18: xhCD8.1-hIL21 v2.34 (other)
VH: QVQLVQSGAEVKKPGSSVKVSCKASGGTFSSYAISWVRQAPGQGLEWMGGIIPGYATANYAQKFQGRVTITADESTSTAYMELSSLRSEDTAVYYCARDAAGIRLFADWGQGTLVTVSS
VL: DIQMTQSPSSLSASVGDRVTITCRASQSIYGALNWYQQKPGKAPKLLIYGASNLQSGVPSRFSGSGSGTDFTLTISSLQPEDFATYYCQSTYTAPWTFGGGTKVEIK
chain: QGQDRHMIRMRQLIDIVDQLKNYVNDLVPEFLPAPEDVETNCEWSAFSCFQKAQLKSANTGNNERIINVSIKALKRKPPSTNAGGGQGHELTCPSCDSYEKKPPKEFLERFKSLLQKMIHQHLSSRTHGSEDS
notes: as for B1
Binder B18 has a Kd of 2 nM.

B19: xhCD8.1-hIL21 v2.37 (other)
VH: QVQLVQSGAEVKKPGSSVKVSCKASGGTFSSYAISWVRQAPGQGLEWMGGIIPGYATANYAQKFQGRVTITADESTSTAYMELSSLRSEDTAVYYCARDAAGIRLFADWGQGTLVTVSS
VL: DIQMTQSPSSLSASVGDRVTITCRASQSIYGALNWYQQKPGKAPKLLIYGASNLQSGVPSRFSGSGSGTDFTLTISSLQPEDFATYYCQSTYTAPWTFGGGTKVEIK
chain: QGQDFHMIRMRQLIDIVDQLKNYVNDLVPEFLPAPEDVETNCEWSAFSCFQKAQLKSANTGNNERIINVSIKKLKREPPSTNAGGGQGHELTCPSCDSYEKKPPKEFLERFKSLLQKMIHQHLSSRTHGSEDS
notes: as for B1
B19 gave a Kd of 601 nM.

B20: xhCD8.1-hIL21 v2.41 (other)
VH: QVQLVQSGAEVKKPGSSVKVSCKASGGTFSSYAISWVRQAPGQGLEWMGGIIPGYATANYAQKFQGRVTITADESTSTAYMELSSLRSEDTAVYYCARDAAGIRLFADWGQGTLVTVSS
VL: DIQMTQSPSSLSASVGDRVTITCRASQSIYGALNWYQQKPGKAPKLLIYGASNLQSGVPSRFSGSGSGTDFTLTISSLQPEDFATYYCQSTYTAPWTFGGGTKVEIK
chain: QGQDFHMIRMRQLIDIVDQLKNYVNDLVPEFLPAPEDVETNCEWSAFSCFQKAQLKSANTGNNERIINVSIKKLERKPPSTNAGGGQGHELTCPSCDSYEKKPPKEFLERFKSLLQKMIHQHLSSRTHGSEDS
notes: as for B1
For B20, the Kd was 104 nM.

B21: xhCD8.1-hIL21 v2.31 (other)
VH: QVQLVQSGAEVKKPGSSVKVSCKASGGTFSSYAISWVRQAPGQGLEWMGGIIPGYATANYAQKFQGRVTITADESTSTAYMELSSLRSEDTAVYYCARDAAGIRLFADWGQGTLVTVSS
VL: DIQMTQSPSSLSASVGDRVTITCRASQSIYGALNWYQQKPGKAPKLLIYGASNLQSGVPSRFSGSGSGTDFTLTISSLQPEDFATYYCQSTYTAPWTFGGGTKVEIK
chain: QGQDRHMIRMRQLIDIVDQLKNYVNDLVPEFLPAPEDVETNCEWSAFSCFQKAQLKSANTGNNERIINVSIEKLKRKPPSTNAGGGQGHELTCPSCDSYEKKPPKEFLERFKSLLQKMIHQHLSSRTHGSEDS
notes: as for B1
Binder B21 has a Kd of 3.4 nM.

From patent publication US12247072 (ASHER BIOTHERAPEUTICS, dated 2025)
